These results are taken from EP4541814A1.

Numbering of substitutions follows the chain as printed.

Experiment [1] addresses trastuzumab-GFP (prepared in-house). Kind of experiment: SPR (Biacore 8K+), fusion protein amine-coupled to CM5, Fc block 2 uM, then trastuzumab-GFP 1 uM. Background: Surface plasmon resonance follows binding to a sensor surface in real time, without labels.
Experiment [2] concerns the target epidermal growth factor receptor (EGFR), Example 4A analyte (UniProt P00533). Kind of experiment: SPR (Biacore 8K+), fusion protein amine-coupled to CM5, EGFR 200 nM, report point late binding.
In experiment [3] the target is EGFR (SinoBiological, 10001-H08H) (UniProt P00533). As to the kind of experiment: SPR (Biacore 8K+), fusion protein amine-coupled to CM5, EGFR 200 nM.

B1: Candidate 4B-5: vh60 fusion protein (SEQ ID NO:172) (VHH)
VHH: QVQLQESGGGLVQPGGSLRLSCAASGRTSINPYMAWFRQAPGKQREFVAAISSGGVYTYYTDSVKGRFTISRDNAKTTVYLQMNSLKPEDTAVYYCAADFRRGGNWNVDPFRYDYQYWGQGTQVTVSS
As for B1, the trastuzumab-eGFP response in analyte binding late (1 µM, RU) in experiment [1] is 4300 RU.

B2: Candidate 4B-6: vh113 fusion protein (SEQ ID NO:173) (VHH)
VHH: B1 VHH with E6Q, L11S, P14A, A23T, A24I, A40R, Q44E, T61A, T77N, Q116D
As to B2, the trastuzumab-eGFP response in analyte binding late (1 µM, RU) in experiment [1] was determined as 3910 RU.

B3: Candidate 4A-5: vh167 fusion protein (SEQ ID NO:169) (VHH)
VHH: QVQLQQSGGGSVQAGGSLRLSCTISGRTFSSYAMGWFRQRPGKEREFVAAINWSSGSTYYADSVKGRFTISRDNAKNTVYLQMNSLKPEDTAVYYCAAGYQINSGNYNFKDYEYDYWGQGTQVTVSS
B3: the Binding capacity EGFR (200 nM) (RU) in experiment [2] was found to be 2350 RU.

B4: Candidate 4B-4: vh167 fusion protein (SEQ ID NO:175) (VHH)
VHH: B3 VHH
B4 yielded an EGFR response in analyte binding late (200 nM, RU) in experiment [3] of 1900 RU.
